Measured values: paper PMC4215112

B1: Bet v 1.0101 peptide I56 to D69 [modified: biotin at the N-terminus, before the additional glycine; biotin at the N-terminus, before the additional glycine] [birch] / M0418 scFv-Fcε fusion protein [human] (parent)
chain 1: QVQLVQSGAEVKKPGESLKISCKGSEYSFPNYWIAWVRQMPGKGLEWMGMIYPGDSDTRYSPSFQGQVNISADKSSRTAFLEWSSLKASDSATYFCARLGGQLWNSYYYYYYMDVWGKGTTVTVSSGGGGSGGGGSGGGGSSYELTQPPSASGTPGQRVTISCSGSSSNIGGNTVNWYQQVPGTAPRLLIYKNNQRPSGVPDRFSGSKSGTSASLAISGLRSEDEADYYCEAWDGGLRGGVFGGGTKLTVLGDYKDDDDKAAA
chain 2: GISFPEGFPFKYVKDG

Variants of: B1
Assay: ELISA
Details: with M0418 scFv-Fcε fusion protein [human], read off a plot

| screen value (10X dilution) [%] | screen value (100X dilution) [%] | Variant |
| --- | --- | --- |
| -0 | 37 | chain 2 F4A |
| -0 | 38 | chain 2 F10A |
| 3 | 79 | chain 2 Y12A |
| 5 | 76 | chain 2 I2A |
| -0 | 9 | chain 2 S3A |
| 95 | 98 | chain 2 K11A |
| 95 | 98 | chain 2 F8A |
| -0 | -0 | chain 2 V13A |
| -0 | 14 | chain 2 E6A |
| -0 | -0 | chain 2 D15A |
| 95 | 98 | chain 2 P9A |
| -0 | -0 | chain 2 K14A |
| 43 | 83 | chain 2 G7A |
| 96 | 98 | chain 2 P5A |
